The values that follow come from patent US20190345207A1 (Pieris, published 2019).

In the test the target is T1, cynomolgus LAG-3 on CHO cells stably transfected with cyLAG-3 (CHO-cyLAG-3) (cynomolgus monkey).
T1 construct: whole, on cells; also called CHO::cynomolgus LAG-3
Kind of test: FACS on transfected CHO cells.

Protocol: To perform the experiment, LAG-3-positive and negative Flp-In CHO cells were incubated with lipocalin muteins, and bound mutein was labeled using fluorescently labeled anti-hTlc antibodies, and then the signal was detected using FACS analysis as described in this example.
5×10⁴ cells per well were pre-incubated for 1 h in ice-cold PBS containing 5% fetal calf serum (PBS-FCS). […] Cells were subsequently washed and analyzed using a intellicyt IQue Flow cytometer (Intellicyt). Fluorescent data generated by lipocalin mutein binding to LAG-3 expressing cells were analyzed by gating for LAG-3 expressing CHO cells and using Forecyt@ software and resulted geometric fluorescent mean were plotted and fitted using Graphpad software.

B1: benchmark anti-LAG-3 antibody (SEQ ID NOs: 5 and 6) (antibody, human IgG4 S228P, kappa, V domains shown)
VH: QVQLQQWGAGLLKPSETLSLTCAVYGGSFSDYYWNWIRQPPGKGLEWIGEINHRGSTNSNPSLKSRVTLSLDTSKNQFSLKLRSVTAADTAVYYCAFGYSDYEYNWFDPWGQGTLVTVSS
VL: EIVLTQSPATLSLSPGERATLSCRASQSISSYLAWYQQKPGQAPRLLIYDASNRATGIPARFSGSGSGTDFTLTISSLEPEDFAVYYCQQRSNWPLTFGQGTNLEIKR
notes: also called benchmark antibody
Broadly, the EC50 is the concentration at which the effect is half-maximal. B1 had an EC50 of 46.8 nM.
